# Measured values: publication PMC5371819, “Structural intermediates and directionality of the swiveling motion of Pyruvate Phosphate Dikinase” (Scientific Reports, 2017)
# B1: Pyruvate phosphate dikinase from Flaveria trinervia (C4-isoform) (enzyme, UniProt P22221 78-953, looked up)
# chain: TAKKRVFTFGKGRSEGNRDMKSLLGGKGANLAEMSSIGLSVPPGLTISTEACEEYQQNGKSLPPGLWDEISEGLDYVQKEMSASLGDPSKPLLLSVRSGAAISMPGMMDTVLNLGLNDEVVAGLAGKSGARFAYDSYRRFLDMFGNVVMGIPHSLFDEKLEQMKAEKGIHLDTDLTAADLKDLVEKYKNVYVEAKGEKFPTDPKKQLELAVNAVFDSWDSPRANKYRSINQITGLKGTAVNIQSMVFGNMGNTSGTGVLFTRNPSTGEKKLYGEFLINAQGEDVVAGIRTPEDLGTMETCMPEAYKELVENCEILERHYKDMMDIEFTVQENRLWMLQCRTGKRTGKGAVRIAVDMVNEGLIDTRTAIKRVETQHLDQLLHPQFEDPSAYKSHVVATGLPASPGAAVGQVCFSAEDAETWHAQGKSAILVRTETSPEDVGGMHAAAGILTARGGMTSHAAVVARGWGKCCVSGCADIRVNDDMKIFTIGDRVIKEGDWLSLNGTTGEVILGKQLLAPPAMSNDLEIFMSWADQARRLKVMANADTPNDALTARNNGAQGIGLCRTEHMFFASDERIKAVRKMIMAVTPEQRKVALDLLLPYQRSDFEGIFRAMDGLPVTIRLLDPPLHEFLPEGDLEHIVNELAVDTGMSADEIYSKIENLSEVNPMLGFRGCRLGISYPELTEMQVRAIFQAAVSMTNQGVTVIPEIMVPLVGTPQELRHQISVIRGVAANVFAEMGVTLEYKVGTMIEIPRAALIAEEIGKEADFFSFGTNDLTQMTFGYSRDDVGKFLQIYLAQGILQHDPFEVIDQKGVGQLIKMATEKGRAANPSLKVGICGEHGGEPSSVAFFDGVGLDYVSCSPFRVPIARLAAAQVIV
# notes: domains NBD aa 1-340, CD aa 380-515, PBD aa 535-874; Cloned into pET-16b with a histidine10 tag and a TEV site; Co-crystallized with PEP and NADH (5JVJ) or PEP and 2'-Br-dAppNHp (5JVL); also called FtPPDK; C4-PPDK
# Target: the molecule itself
# Assay: crystal structure; FtPPDK 10 mg/mL co-crystallized with 20 mM PEP and 10 mM NADH, microbatch, 17% PEG 3350, 100 mM MOPS pH 7, 100 mM magnesium formate, 21 °C; PDB 5JVJ, two monomers in the ASU
protein,measurement,value
B1,binding result,binds
